What was measured:
[1] = molecular target: CD3 molecules of the CD3/TCR complex on mouse T cells (mouse) (UniProt A2KF29); test: confocal fluorescence microscopy, NBD-peptide and labelled anti-CD3 antibody on mouse T cells
[2] = molecular target: TLR2 TMD peptide labelled with Rho (TLR2-Rho); test: FRET, gp41 TMD-NBD constant at 0.4 µM and TLR2-Rho added at 0.025-0.8 µM, 100 µM LUVs

**Q.** For “gp41 TMD conjugated to NBD (gp41 transmembrane domain peptide, NBD-labelled)”, which co-localization percentage [1] is on record?
**A.** 58.8%

**Q.** What about the percent of energy transfer (FRET) [2] of the same substance?
**A.** > 60%
